{"source": "patent US20150266963A1", "about": "(ARGEN X B V, published 2015)", "binders": {"B1": {"name": "ARGX-110 (non-fucosylated 41D12 human IgG1) (antibody, V domains shown)", "VH": "EVQLVESGGGLVQPGGSLRLSCAASGFTFSVYYMNWVRQAPGKGLEWVSDINNEGGTTYYADSVKGRFTISRDNSKNSLYLQMNSLRAEDTAVYYCARDAGYSNHVPIFDSWGQGTLVTVSS", "VL": "QAVVTQEPSLTVSPGGTVTLTCGLKSGSVTSDNFPTWYQQTPGQAPRLLIYNTNTRHSGVPDRFSGSILGNKAALTITGAQADDEAEYFCALFISNPSVEFGGGTQLTVLG", "notes": "also called 41D12 (ARGX-110)"}}, "key": {"[1]": {"biological_target": "T1, human CD70 expressed on the surface of cells (human, UniProt P32970 1-193)", "T1 construct": "whole, on cells; also called cell surface expressed CD70; CD70 on cells", "T1 sequence (looked up)": "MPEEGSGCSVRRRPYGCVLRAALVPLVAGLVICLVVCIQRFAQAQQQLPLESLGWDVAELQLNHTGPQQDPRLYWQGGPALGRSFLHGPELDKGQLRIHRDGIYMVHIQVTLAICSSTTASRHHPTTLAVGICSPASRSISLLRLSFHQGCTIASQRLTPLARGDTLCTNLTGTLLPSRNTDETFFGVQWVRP", "assay": "FACS MFI at 37 C, U87MG cells; reference SGN70", "method": "(§1) Several cancer cell lines were tested by FACS analysis for binding of ARGX-110 and SGN70 (described in US2010/0129362) at saturating mAb concentrations (at least 2 μg/ml). This was either done at 4° C. (1 hour incubation of cells with mAbs) or at 37° C. (15 minutes incubation of cells with mAbs). Binding was detected using anti-hIgG1-Fc-FITC (AF006, Binding Site) or anti-hIgG1-Fc-PE antibody (eBioscience, 12-4998). Fluorescence was measured using a flow cytometer."}, "[2]": {"biological_target": "T2, recombinant human CD70 (Flag-TNC-CD70) (human, UniProt P32970 39-193)", "T2 construct": "extracellular domain; Captured by anti-Flag mAb in ELISA; as 'recombinant human CD70' immobilised on Biacore CM5 chips; TNC is for trimerisation; also called recombinant CD70; human recombinant CD70; not shown: Flag tag and TNC trimerisation domain", "T2 sequence (looked up)": "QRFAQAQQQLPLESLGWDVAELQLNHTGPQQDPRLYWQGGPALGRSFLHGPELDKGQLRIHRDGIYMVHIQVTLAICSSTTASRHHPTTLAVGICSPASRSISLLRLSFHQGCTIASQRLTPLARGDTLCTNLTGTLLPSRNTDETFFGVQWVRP", "assay": "blocking ELISA; competitor CD27-Fc; references SGN70 and MDX1411", "method": "(§2) In this assay, a microtiter plate (Nunc Maxisorb) was first coated with 100 μl anti-FLAG M2 monoclonal antibody (Sigma Aldrich, F3165) at 1250-fold dilution in PBS (to achieve a final concentration of approximately 3.5 μg/ml) overnight at 4° C. The plate was washed once with PBS-Tween and incubated at RT for 2 hours with 300 μl PBS-1% casein. The plate was washed a further three times with PBS-Tween. 100 μl of 5 ng/ml (80 pM) Flag-TNC-CD70 (The Journal of Immunology, 2009, 183: 1851-1861) diluted in PBS-0.1% casein was added to the plate and incubated at RT for 1 hour while shaking. The plate was washed five times with PBS-Tween. The CD70 mAb to be tested was added to the plate; various concentrations were achieved by diluting the stock antibody solution in PBS-0.1% casein. Immediately thereafter, 50 μl of 1 μg/ml (final concentration 6.5 nM) recombinant human CD27 Fc chimera (R&D systems 382-CD, MW=46.5 kDa) was added, and incubated at RT for 1 hour while shaking. The plate was washed five times with PBS Tween. 100 μl of biotinylated anti-CD27 (eBioscience 13-0271), diluted 500-fold in PBS-0.1% casein, was added, and the plate incubated at RT for a further hour, while shaking. The plate was washed five times with PBS Tween. […] 100 μl TMB was added to the plate and the OD at 620 nm was measured. […]"}, "[3]": {"biological_target": "T1, human CD70 expressed on the surface of …", "assay": "FACS MFI at 37 C, PANC-1 cells; reference SGN70", "method": "as §1"}, "[4]": {"biological_target": "T2, recombinant human CD70 (Flag-TNC-CD70)", "assay": "blocking ELISA; human Flag-TNC-CD70; competitor CD27-Fc", "method": "as §2"}, "[5]": {"biological_target": "T1, human CD70 expressed on the surface of …", "assay": "FACS MFI at 37 C, U266 cells; reference SGN70", "method": "as §1"}, "[6]": {"biological_target": "T1, human CD70 expressed on the surface of …", "assay": "FACS MFI at 37 C, Granta 519 cells; reference SGN70", "method": "as §1"}, "[7]": {"biological_target": "T1, human CD70 expressed on the surface of …", "assay": "FACS MFI at 37 C, Mec1 cells; reference SGN70", "method": "as §1"}, "[8]": {"biological_target": "T1, human CD70 expressed on the surface of …", "assay": "FACS MFI at 37 C, 786-O cells; reference SGN70", "method": "as §1"}}}
{"binder": "B1", "values": [{"measurement": "Signal in FACS of ARGX-110/signal in FACS of SGN70", "setting": "[1]", "value": 2, "unit": "ratio"}, {"measurement": "fold more potent in blocking than the two benchmark mAbs", "setting": "[2]", "value": "~100", "unit": "fold"}, {"measurement": "Signal in FACS of ARGX-110/signal in FACS of SGN70", "setting": "[3]", "value": 2.9, "unit": "ratio"}, {"measurement": "IC50", "setting": "[4]", "value": 0.039, "unit": "µg/mL"}, {"measurement": "Signal in FACS of ARGX-110/signal in FACS of SGN70", "setting": "[5]", "value": 0.8, "unit": "ratio"}, {"measurement": "Signal in FACS of ARGX-110/signal in FACS of SGN70", "setting": "[6]", "value": 0.9, "unit": "ratio"}, {"measurement": "Signal in FACS of ARGX-110/signal in FACS of SGN70", "setting": "[7]", "value": 1.2, "unit": "ratio"}, {"measurement": "Signal in FACS of ARGX-110/signal in FACS of SGN70", "setting": "[8]", "value": 2.1, "unit": "ratio"}]}
